Experimental data reported in publication PMC3463842 (The EMBO Journal, 2012).
Numbering of substitutions follows the chain as printed. Names and notes keep the numbering of the source. Blank lines part the entries; values can stand above or below the binder they belong to.

Target: ubiquitin^TAMRA (C-terminal TAMRA-labelled ubiquitin) (UniProt P0CG48 1-76, TAMRA label at the C-terminus)
Experiment: fluorescence polarisation

Kd: 118 µM
B1: HOIP^RBR-LDD (699–1072), as used in the FP assay (domain or fragment)
chain: CAVCGWALPHNRMQALTSCECTICPDCFRQHFTIALKEKHITDMVCPACGRPDLTDDTQLLSYFSTLDIQLRESLEPDAYALFHKKLTEGVLMRDPKFLWCAQCSFGFIYEREQLEATCPQCHQTFCVRCKRQWEEQHRGRSCEDFQNWKRMNDPEYQAQGLAMYLQENGIDCPKCKFSYALARGGCMHFHCTQCRHQFCSGCYNAFYAKNKCPEPNCRVKKSLHGHHPRDCLFYLRDWTALRLQKLLQDNNVMFNTEPPAGARAVPGGGCRVIEQKEVPNGLRDEACGKETPAGYAGLCQAHYKEYLVSLINAHSLDPATLYEVEELETATERYLHVRPQPLAGEDPPAYQARLLQKLTEEVPLGQSIPRRRK

Kd: 83 µM
B2: HOIP^RBR-LDD C930A (domain or fragment)
chain: B1 chain with C232A
